# Data as given in patent US20250011363A1, “OPTIMIZED SHORTENED PEPTIDE THAT BINDS TO ACETYLCHOLINE RECEPTOR, AND USE THEREOF” (SKINMED CO., LTD., priority 2021, published 2025).
# Molecular target: acetylcholine receptor (Homo sapiens, UniProt P02708)
# Test: SPR binding affinity (RU) of optimized 5mer/6mer/7mer peptides, Examples 6-7
# Settings: 6mer-1 Top sequence; SPR; peptides tested at 10 μM
# Procedure, shortened: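 Using surface plasmon resonance, binding to the acetylcholine receptor was measured for each sequence at a single 10 μM concentration. Values are response units.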
# Chain of acetylcholine receptor (P02708 21-457): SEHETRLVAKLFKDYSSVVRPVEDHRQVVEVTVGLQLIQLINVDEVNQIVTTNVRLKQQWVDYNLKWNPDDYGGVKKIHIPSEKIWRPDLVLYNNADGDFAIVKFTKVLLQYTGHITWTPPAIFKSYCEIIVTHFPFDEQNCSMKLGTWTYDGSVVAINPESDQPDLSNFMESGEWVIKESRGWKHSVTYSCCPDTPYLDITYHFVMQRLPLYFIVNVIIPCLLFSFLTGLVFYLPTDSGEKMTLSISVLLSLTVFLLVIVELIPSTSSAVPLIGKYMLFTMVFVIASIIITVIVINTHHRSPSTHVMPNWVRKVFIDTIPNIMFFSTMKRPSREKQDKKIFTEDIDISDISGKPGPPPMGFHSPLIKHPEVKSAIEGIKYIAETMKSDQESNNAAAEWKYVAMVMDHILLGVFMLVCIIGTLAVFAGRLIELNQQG
row,Substance,Binding affinity [Ru]
1,6mer-1-310 (RKRQLK),127
2,6mer-1-221 (KKWFQR),148
3,6mer-1-305 (RKWISR),153
4,6mer-1-294 (KKLYRR),123

# Same assay, conditions: 6mer-2 Top sequence; SPR; peptides tested at 10 μM
row,Substance,Binding affinity [Ru]
1,6mer-2-149 (KGQQRK),127
2,6mer-2-18 (RSILRR),124
3,6mer-2-179 (RRVYRR),121
4,6mer-2-83 (KQYQRR),135
5,6mer-2-110 (KSQLKK),153
6,6mer-2-84 (KQRYKK),139
7,6mer-2-1 (RRRLKK),131
8,6mer-2-152 (RQFYKR),139
9,6mer-2-8 (KSLQKK),135

# Same assay, conditions: SPR, Resonance Units; 5mer Bottom sequence (bottom combinations); peptides tested at 10 μM
row,Substance,Binding affinity [Ru]
1,5mer-939 (KMHAR),24
2,5mer-1016 (KYTMR),28
3,5mer-742 (RNSDK),11
4,5mer-759 (KHKMR),17
5,5mer-663 (RATPR),31
6,5mer-1003 (RMTVR),11
7,5mer-697 (KASKK),25
8,5mer-1036 (KTHMK),23
9,5mer-619 (KCSFK),19
10,5mer-937 (KASNR),21
11,5mer-1037 (KKSFR),28
12,5mer-721 (RYSKK),22
13,5mer-725 (RNADR),19
14,5mer-1090 (KISGK),31
15,5mer-942 (RPSDR),11
16,5mer-606 (RIHWK),25
17,5mer-931 (RITER),11
18,5mer-1109 (KCHPK),14
19,5mer-962 (RIWKR),23
20,5mer-965 (KMEIR),30
21,5mer-630 (RITFR),30

# Same assay, conditions: SPR, Resonance Units; peptides tested at 10 μM; 6mer-1 Bottom sequence
row,Substance,Binding affinity [Ru]
1,6mer-1-1040 (KRIEFR),28
2,6mer-1-1161 (KRHWVK),40
3,6mer-1-1166 (KKEEKR),22
4,6mer-1-1067 (RRKHWK),38
5,6mer-1-1151 (KKKEAK),34
6,6mer-1-1099 (RRKTDR),24
7,6mer-1-1197 (KRPMAK),21
8,6mer-1-1050 (KKMEDR),38
9,6mer-1-1155 (RKKEKR),28
10,6mer-1-1008 (RKPWAR),21

# Same assay, conditions: SPR, Resonance Units; peptides tested at 10 μM; 6mer-1 Bottom sequence (Table 11)
row,Substance,Binding affinity [Ru]
1,6mer-1-674 (RKHPKK),32
2,6mer-1-684 (KRNNDR),20
3,6mer-1-603 (KRPHFK),13
4,6mer-1-655 (RKNMFR),12
5,6mer-1-709 (KKFKPK),29
6,6mer-1-755 (RRANMR),25
7,6mer-1-654 (KRMNDR),23
8,6mer-1-788 (RKIPKK),22
9,6mer-1-605 (RKNADR),20
10,6mer-1-631 (RRYSDR),13
11,6mer-1-790 (KKPNPK),12
12,6mer-1-686 (KKYEVR),25

# Same assay, conditions: SPR, Resonance Units; peptides tested at 10 μM; 6mer-2 Bottom sequence
row,Substance,Binding affinity [Ru]
1,6mer-2-924 (RFDHKK),28
2,6mer-2-975 (KKTMKK),38
3,6mer-2-609 (RDSDRR),24
4,6mer-2-899 (KKMVKR),13
5,6mer-2-860 (KPNFRR),31
6,6mer-2-832 (KYHNRR),32
7,6mer-2-661 (RMKAKK),29
8,6mer-2-879 (RTMDRR),19
9,6mer-2-768 (KYMGRK),22
10,6mer-2-993 (RHDVKK),29
11,6mer-2-751 (RPHWKR),12
12,6mer-2-766 (RPTFRK),23

# Same assay, conditions: SPR, Resonance Units; peptides tested at 10 μM; 6mer-2 Top sequence
row,Substance,Binding affinity [Ru]
1,6mer-2-431 (KLILKR),135
2,6mer-2-529 (KQQRKR),124
3,6mer-2-594 (RWYRRR),139
4,6mer-2-423 (RLQYRK),154
5,6mer-2-413 (RLILKR),136
6,6mer-2-576 (KGVSRR),139
7,6mer-2-452 (KGLYKR),146

# Same assay, conditions: SPR, Resonance Units; peptides tested at 10 μM; 6mer-2 Top sequence (Table 12)
row,Substance,Binding affinity [Ru]
1,6mer-2-334 (KVILRR),146
2,6mer-2-288 (KSRLRK),122
3,6mer-2-326 (RGFYKK),142
4,6mer-2-342 (KRYRKK),145
5,6mer-2-341 (KVVTKR),144

# Same assay, conditions: SPR, peptides at 10 μM; 6mer-2 Bottom sequence
row,Substance,Binding affinity [Ru]
1,6mer-2-1162 (KMSERR),34
2,6mer-2-1105 (RNNAKK),28
3,6mer-2-1170 (KFTIRR),25
4,6mer-2-997 (KISFKK),30
5,6mer-2-1078 (KDTFRR),40
6,6mer-2-1023 (KAEFKR),26
7,6mer-2-1034 (KHSWRR),38
8,6mer-2-1118 (RFDGRR),42
9,6mer-2-1197 (KNCIKK),23

# Same assay, conditions: SPR, peptides tested at 10 μM; 5mer Top sequence
row,Substance,Binding affinity [Ru]
1,5mer-493 (KSIRR),57
2,5mer-474 (RQFLR),80
3,5mer-421 (RVVYK),68
4,5mer-412 (RGRSR),81
5,5mer-109 (RLQCR),68
6,5mer-383 (RWQRK),56
7,5mer-418 (RWRTR),53
8,5mer-498 (KLISK),53
9,5mer-162 (RGYQR),51
10,5mer-136 (RRIYK),75
11,5mer-340 (KGYRR),51
12,5mer-447 (KGYYK),76
13,5mer-471 (RGYLR),69
14,5mer-77 (KWRQK),74
15,5mer-444 (KQQYR),65

# Same assay, conditions: SPR, peptides tested at 10 μM; 5mer Top sequence (top combinations)
row,Substance,Binding affinity [Ru]
1,5mer-258 (KRQYK),84
2,5mer-228 (KRFLK),53
3,5mer-294 (KQYYK),50
4,5mer-547 (KQVTK),77
5,5mer-527 (KSVQR),70
6,5mer-285 (KGQLK),75
7,5mer-564 (RSRYR),74
8,5mer-271 (RGRYR),68
9,5mer-566 (KQLYK),78
10,5mer-237 (RGLRK),77
11,5mer-536 (RLITK),78
12,5mer-298 (KSIYR),75

# Same assay, conditions: SPR, peptides tested at 10 μM; 6mer-1 Bottom sequence (Table 11)
row,Substance,Binding affinity [Ru]
1,6mer-1-975 (RKASIK),22
2,6mer-1-914 (RRKCVR),39
3,6mer-1-889 (KRIMEK),25
4,6mer-1-958 (KRYAGR),43
5,6mer-1-893 (RRIPHR),22
6,6mer-1-923 (RRASDR),43
7,6mer-1-812 (RKDHMK),26

# Same assay, conditions: SPR, peptides tested at 10 μM; 6mer-1 Top sequence
row,Substance,Binding affinity [Ru]
1,6mer-1-576 (RKRQRR),153
2,6mer-1-484 (KKLYLR),154
3,6mer-1-566 (KKSFCR),148
4,6mer-1-435 (RKWRCK),135
5,6mer-1-578 (RKGQYK),139
6,6mer-1-577 (KKQYQR),128
7,6mer-1-545 (RRSYRK),127

# Same assay, conditions: SPR, peptides tested at 10 μM; 6mer-1 Top sequence (top combinations)
row,Substance,Binding affinity [Ru]
1,6mer-1-39 (RKVYQK),139
2,6mer-1-165 (KKWFTK),148
3,6mer-1-93 (KRWIRR),136
4,6mer-1-177 (KRGYRR),121
5,6mer-1-19 (KRSFYR),135
6,6mer-1-33 (KKSYCR),154
7,6mer-1-95 (KKWQTK),142
8,6mer-1-135 (KRQVSR),123
9,6mer-1-189 (KKSYSK),137
10,6mer-1-36 (RKWQQK),124
11,6mer-1-132 (RRQVYR),153
12,6mer-1-21 (RKWYLK),137

# Same assay, conditions: SPR; XRRQRR-6mer and RRQRRX-6mer
row,Substance,"Binding affinity, relative value to the RRQRR sequence"
1,3614 (NRRQRR) [compound 3614],113
2,3607 (IRRQRR) [compound 3607],121
3,3618 (HRRQRR) [compound 3618],164

# Same assay, conditions: SPR; peptides tested at 10 μM; 5mer Bottom sequence
row,Substance,Binding affinity [Ru]
1,5mer-1157 (KTSHR),21
2,5mer-830 (RIDGK),25
3,5mer-822 (RAKGK),16
4,5mer-865 (RMMER),21
5,5mer-842 (RHNVK),20
6,5mer-869 (KKHPK),31
7,5mer-878 (KHTER),24
